This test has as its target IGF2R ectodomain, recombinant, AlexaFlour488-labeled (UniProt P11717).

Turning to “G2 mCherry GELYTAC (IGF2 E6R, F19L, S39P), recombinant”, the EC50 of mCherry uptake by K562 cells amounted to 16 nM.

For “mCherry GELYTAC (original, wild-type IGF2), recombinant”, the EC50 of mCherry uptake by K562 cells was 101 nM.

The record behind these values is PMC10680704.
